Positions count from the first letter of the chain named.
Assays:
GST-SDE2 ΔSAP+CTT = molecular target: T1, GST-SDE2 ΔSAP+CTT (human, UniProt Q6IQ49 1-394, del395-451); test: EMSA; 50-200 nM protein; EMSA: 10 mM Tris-HCl pH 7.5, 50 mM NaCl, 0.5 mM DTT, 0.05 mM EDTA, 3% glycerol, 0.05 mg/ml BSA (or 50 mM Na/K PO4 pH 6.0, 50 mM NaCl, 5 mM DTT), on ice; anisotropy: 50 mM Na/K PO4 pH 6.0, 50 mM NaCl, 5 mM DTT, 1 uM DNA; pull-down: 10 mM Tris-HCl pH 7.5, 100 mM NaCl, 0.2 mM EDTA, 1 mM DTT, 10% glycerol, 0.01% NP-40, 10 ug/ml BSA, RT; NMR: 50 mM Na/K phosphate, 50 mM NaCl, 5 mM DTT, 10% D2O; conditions: protein: recombinant; tags: N-term GST; label: 5' 6-FAM
T1 sequence: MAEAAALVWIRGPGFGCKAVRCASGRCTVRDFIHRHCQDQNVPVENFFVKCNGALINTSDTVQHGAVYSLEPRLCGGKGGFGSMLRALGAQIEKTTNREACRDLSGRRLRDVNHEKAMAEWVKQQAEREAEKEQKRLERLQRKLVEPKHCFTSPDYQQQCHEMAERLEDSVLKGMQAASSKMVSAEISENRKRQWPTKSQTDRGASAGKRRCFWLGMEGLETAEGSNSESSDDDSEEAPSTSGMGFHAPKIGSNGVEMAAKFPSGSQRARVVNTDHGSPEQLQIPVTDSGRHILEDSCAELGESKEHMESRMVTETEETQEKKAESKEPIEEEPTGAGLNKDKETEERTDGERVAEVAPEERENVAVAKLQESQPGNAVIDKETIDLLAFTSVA

GST-SDE2-FLAG WT = molecular target: T2, GST-SDE2-FLAG WT (human, UniProt Q6IQ49 1-451); test: fluorescence anisotropy; EMSA: 10 mM Tris-HCl pH 7.5, 50 mM NaCl, 0.5 mM DTT, 0.05 mM EDTA, 3% glycerol, 0.05 mg/ml BSA (or 50 mM Na/K PO4 pH 6.0, 50 mM NaCl, 5 mM DTT), on ice; anisotropy: 50 mM Na/K PO4 pH 6.0, 50 mM NaCl, 5 mM DTT, 1 uM DNA; pull-down: 10 mM Tris-HCl pH 7.5, 100 mM NaCl, 0.2 mM EDTA, 1 mM DTT, 10% glycerol, 0.01% NP-40, 10 ug/ml BSA, RT; NMR: 50 mM Na/K phosphate, 50 mM NaCl, 5 mM DTT, 10% D2O; conditions: protein: recombinant; tags: N-term GST, C-term FLAG; label: 5' 6-FAM
T2 sequence: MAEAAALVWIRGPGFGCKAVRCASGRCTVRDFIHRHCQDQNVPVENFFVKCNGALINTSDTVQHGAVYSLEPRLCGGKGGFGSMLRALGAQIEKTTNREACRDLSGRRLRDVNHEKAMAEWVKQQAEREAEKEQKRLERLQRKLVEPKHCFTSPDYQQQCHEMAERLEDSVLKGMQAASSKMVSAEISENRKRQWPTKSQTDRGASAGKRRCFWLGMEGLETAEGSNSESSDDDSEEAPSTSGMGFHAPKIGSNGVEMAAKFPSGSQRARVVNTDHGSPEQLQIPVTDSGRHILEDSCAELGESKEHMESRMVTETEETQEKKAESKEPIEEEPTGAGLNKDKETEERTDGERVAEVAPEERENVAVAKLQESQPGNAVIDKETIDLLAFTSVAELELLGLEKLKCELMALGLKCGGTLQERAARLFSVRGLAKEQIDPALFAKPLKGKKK

GST-SDE2SAP = molecular target: T3, GST-SDE2SAP (human, UniProt Q6IQ49 350-451); test: as above; conditions: protein: recombinant; tags: N-term GST; label: 5' 6-FAM
T3 sequence: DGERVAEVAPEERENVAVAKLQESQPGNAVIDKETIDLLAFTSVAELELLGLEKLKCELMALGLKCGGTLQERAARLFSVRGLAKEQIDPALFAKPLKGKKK

GST-SDE2-FLAG ΔSAP = molecular target: T4, GST-SDE2-FLAG ΔSAP (human, UniProt Q6IQ49 1-451, del395-427); test: EMSA; 200 nM protein, 50 nM DNA; EMSA: 10 mM Tris-HCl pH 7.5, 50 mM NaCl, 0.5 mM DTT, 0.05 mM EDTA, 3% glycerol, 0.05 mg/ml BSA (or 50 mM Na/K PO4 pH 6.0, 50 mM NaCl, 5 mM DTT), on ice; anisotropy: 50 mM Na/K PO4 pH 6.0, 50 mM NaCl, 5 mM DTT, 1 uM DNA; pull-down: 10 mM Tris-HCl pH 7.5, 100 mM NaCl, 0.2 mM EDTA, 1 mM DTT, 10% glycerol, 0.01% NP-40, 10 ug/ml BSA, RT; NMR: 50 mM Na/K phosphate, 50 mM NaCl, 5 mM DTT, …; conditions: protein: recombinant; tags: N-term GST, C-term FLAG; label: 5' 6-FAM
T4 sequence: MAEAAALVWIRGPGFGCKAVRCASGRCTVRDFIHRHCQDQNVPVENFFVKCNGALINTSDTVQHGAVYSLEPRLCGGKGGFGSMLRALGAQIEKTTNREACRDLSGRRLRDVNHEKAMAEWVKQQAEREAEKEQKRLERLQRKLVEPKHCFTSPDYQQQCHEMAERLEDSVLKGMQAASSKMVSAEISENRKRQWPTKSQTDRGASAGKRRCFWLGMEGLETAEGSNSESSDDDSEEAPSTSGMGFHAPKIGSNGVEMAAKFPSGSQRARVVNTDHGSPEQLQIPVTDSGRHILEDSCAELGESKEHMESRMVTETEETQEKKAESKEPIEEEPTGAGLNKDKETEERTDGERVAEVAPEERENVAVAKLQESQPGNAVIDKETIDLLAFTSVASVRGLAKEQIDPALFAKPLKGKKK

GST-SDE2 CGTKK = molecular target: T5, GST-SDE2 CGTKK (human, UniProt Q6IQ49 1-451, C415A;G417S;T418V;K444A;K447A); test: EMSA; 50-200 nM protein, 20 nM DNA; EMSA: 10 mM Tris-HCl pH 7.5, 50 mM NaCl, 0.5 mM DTT, 0.05 mM EDTA, 3% glycerol, 0.05 mg/ml BSA (or 50 mM Na/K PO4 pH 6.0, 50 mM NaCl, 5 mM DTT), on ice; anisotropy: 50 mM Na/K PO4 pH 6.0, 50 mM NaCl, 5 mM DTT, 1 uM DNA; pull-down: 10 mM Tris-HCl pH 7.5, 100 mM NaCl, 0.2 mM EDTA, 1 mM DTT, 10% glycerol, 0.01% NP-40, 10 ug/ml BSA, RT; NMR: 50 mM Na/K phosphate, 50 mM NaCl, 5 mM DTT, …; conditions: protein: recombinant; tags: N-term GST; label: 5' 6-FAM
T5 sequence: T2 sequence with C415A, G417S, T418V, K444A, K447A

B1: 60-mer ssDNA (EMSA1) (ssDNA)
DNA: GACGCTGCCGAATTCTACCAGTGCCTTGCTAGGACATCTTTGCCCACCTGCAGGTTCACCC
- binding result (GST-SDE2 ΔSAP+CTT): no binding
- Kd (GST-SDE2-FLAG WT): ~1100 nM
- Kd (GST-SDE2SAP): 1770 ± 410 nM
- binding result (GST-SDE2-FLAG ΔSAP): no binding
- binding result (GST-SDE2 CGTKK): no binding
